The supplement of paper PMC12458215
± gives the uncertainty stated by the source.

Test system: HEK293T
Test: plasma membrane surface immunostaining intensity (anti-HA, deep receptor scanning) (arbitrary fluorescence units); higher = higher plasma membrane expression

Sequence	plasma membrane surface immunostaining intensity (GPCR class: A)	plasma membrane surface immunostaining intensity (GPCR class: A (Olfactory))	also measured
MAVQGSQRRLLGSLNSTPTAIPQLGLAANQTGARCLEVSISDGLFLSLGLVSLVENALVVATIAKNRNLHSPMYCFICCLALSDLLVSGSNVLETAVILLLEAGALVARAAVLQQLDNVIDVITCSSMLSSLCFLGAIAVDRYISIFYALRYHSIVTLPRARRAVAAIWVASVVFSTLFIAYYDHVAVLLCLVVFFLAMLVLMAVLYVHMLARACQHAQGIARLHKRQRPVHQGFGLKGAVTLTILLGIFFLCWGPFFLHLTLIVLCPEHPTCGCIFKNFNLFLALIICNAIIDPLIYAFHSQELRRTLKEVLTCSW [MC1R]	299 ± 43	–	–
MAWENQTFNSDFILLGIFNHSPPHTFLFFLVLGIFLVAFMGNSVMVLLIYLDTQLHTPMYFLLSQLSLMDLMLICTTVPKMAFNYLSGSKSISMAGCVTQIFFYISLSGSECFLLAVMAYDRYIAICHPLRYTNLMNPKICGLMATFSWILGSTDGIIDAVATFSFSFCGSREIAHFFCEFPSLLILSCNDTSIFEEVIFICCIVMLVFPVAIIIASYARVILAVIHMGSGEGRCKAFTTCSSHLMVVGMYYGAALFMYIRPTSDHSPTQDKMVSVFYTILTPMLNPLIYSLRNKEVTRAFMKILGKGKSESELPHKLYVLLFAKFFFLISIFFYDVKILALIMYIA [OR2M2]	–	134 ± 22	–
MAWENQTFNSDFILLGIFNHSPTHTFLFFLVLAIFSVAFMGNSVMVLLIYLDTQLHTPMYFLLSQLFLMDLMLICSTVPKMAFNYLSGSKSISMAGCATQIFFYVSLLGSECFLLAVMSYDRYIAICHPLRYTNLMRPKICGLMTAFSWILGSMDAIIDAVATFSFSYCGSREIAHFFCDFPSLLILSCNDTSIFEKVLFICCIVMIVFPVAIIIASYARVILAVIHMGSGEGRRKAFTTCSSHLMVVGMYYGAGLFMYIRPTSDRSPMQDKLVSVFYTILTPMLNPLIYSLRNKEVTRALRKVLGKGKCGE [OR2M5]	–	111 ± 20	–
MAWENQTFNSDFLLLGIFNHSPTHTFLFFLVLAIFSVAFMGNSIMVLLIYLDTQLHTPMYFLLSQLSLMDLMLICTTVPKMAFNYLSGSKSISMAGCATQIFFYISLLGSECFLLAVMSYDRYTAICHPLRYTNLMRPKICGLMTAFSWILGSTDGIIDAVATFSFSYCGSREIAHFCCDFPSLLILSCNDTSIFEEVIFICCIVMLVFPVAIIITSYARVILAVIHMGSGEGRRKAFTTCSSHLMVVGMYYGAGLFMCIQPTSHHSPMQDKMVSVFYTIVTPMLNPLIYSLRNKEVTRALMKILGKGKSGD [OR2M7]	–	157 ± 44	–
MAWRGAGPSVPGAPGGVGLSLGLLLQLLLLLGPARGFGDEEERRCDPIRISMCQNLGYNVTKMPNLVGHELQTDAELQLTTFTPLIQYGCSSQLQFFLCSVYVPMCTEKINIPIGPCGGMCLSVKRRCEPVLKEFGFAWPESLNCSKFPPQNDHNHMCMEGPGDEEVPLPHKTPIQPGEECHSVGTNSDQYIWVKRSLNCVLKCGYDAGLYSRSAKEFTDIWMAVWASLCFISTAFTVLTFLIDSSRFSYPERPIIFLSMCYNIYSIAYIVRLTVGRERISCDFEEAAEPVLIQEGLKNTGCAIIFLLMYFFGMASSIWWVILTLTWFLAAGLKWGHEAIEMHSSYFHIAAWAIPAVKTIVILIMRLVDADELTGLCYVGNQNLDALTGFVVAPLFTYLVIGTLFIAAGLVALFKIRSNLQKDGTKTDKLERLMVKIGVFSVLYTVPATCVIACYFYEISNWALFRYSADDSNMAVEMLKIFMSLLVGITSGMWIWSAKTLHTWQKCSNRLVNSGKVKREKRGNGWVKPGKGSETVV [FZD4]	–	–	plasma membrane surface immunostaining intensity (GPCR class: F): 5830 ± 270
MCPMLLKNGYNGNATPVTTTAPWASLGLSAKTCNNVSFEESRIVLVVVYSAVCTLGVPANCLTAWLALLQVLQGNVLAVYLLCLALCELLYTGTLPLWVIYIRNQHRWTLGLLACKVTAYIFFCNIYVSILFLCCISCDRFVAVVYALESRGRRRRRTAILISACIFILVGIVHYPVFQTEDKETCFDMLQMDSRIAGYYYARFTVGFAIPLSIIAFTNHRIFRSIKQSMGLSAAQKAKVKHSAIAVVVIFLVCFAPYHLVLLVKAAAFSYYRGDRNAMCGLEERLYTASVVFLCLSTVNGVADPIIYVLATDHSRQEVSRIHKGWKEWSMKTDVTRLTHSRDTEELQSPVALADHYTFSRPVHPPGSPCPAKRLIEESC [GPR132]	372 ± 74	–	–
MCSGNQTSQNQTASTDFTLTGLFAESKHAALLYTVTFLLFLMALTGNALLILLIHSEPRLHTPMYFFISQLALMDLMYLCVTVPKMLVGQVTGDDTISPSGCGIQMFFYLTLAGAEVFLLAAMAYDRYAAVCRPLHYPLLMNQRVCQLLVSACWVLGMVDGLLLTPITMSFPFCQSRKILSFFCETPALLKLSCSDVSLYKTLMYLCCILMLLAPIMVISSSYTLILHLIHRMNSAAGHRKALATCSSHMIIVLLLFGASFYTYMLPSSYHTAEQDMMVSAFYTIFTPVLNPLIYSLRNKDVTRALRSMMQSRMNQEK [OR2T3]	–	450 ± 200	–
MCWTMPSPFTGSSTRNMESGNQSTVTEFIFTGFPQLQDGSLLYFFPLLFIYTFIIIDNLLIFSAVRLDTHLHNPMYNFISIFSFLEIWYTTATIPKMLSNLISEKKAISMTGCILQMYFFHSLENSEGILLTTMAIDRYVAICNPLRYQMIMTPRLCAQLSAGSCLFGFLILLPEIVMISTLPFCGPNQIHQIFCDLVPVLSLACTDTSMILIEDVIHAVTIIITFLIIALSYVRIVTVILRIPSSEGRQKAFSTCAGHLMVFPIFFGSVSLMYLRFSDTYPPVLDTAIALMFTVLAPFFNPIIYSLRNKDMNNAIKKLFCLQKVLNKPGG [OR6K3]	–	197 ± 66	–
MDAALLHSLLEANCSLALAEELLLDGWGPPLDPEGPYSYCNTTLDQIGTCWPRSAAGALVERPCPEYFNGVKYNTTRNAYRECLENGTWASKINYSQCEPILDDKQRKYDLHYRIALVVNYLGHCVSVAALVAAFLLFLALRSIRCLRNVIHWNLITTFILRNVMWFLLQLVDHEVHESNEVWCRCITTIFNYFVVTNFFWMFVEGCYLHTAIVMTYSTERLRKCLFLFIGWCIPFPIIVAWAIGKLYYENEQCWFGKEPGDLVDYIYQGPIILVLLINFVFLFNIVRILMTKLRASTTSETIQYRKAVKATLVLLPLLGITYMLFFVNPGEDDLSQIMFIYFNSFLQSFQGFFVSVFYCFFNGEVRSAVRKRWHRWQDHHSLRVPMARAMSIPTSPTRISFHSIKQTAAV [CRHR2]	–	–	plasma membrane surface immunostaining intensity (GPCR class: B): 2380 ± 560
MDFLNSSDQNLTSEELLNRMPSKILVSLTLSGLALMTTTINSLVIAAIIVTRKLHHPANYLICSLAVTDFLVAVLVMPFSIVYIVRESWIMGQVVCDIWLSVDITCCTCSILHLSAIALDRYRAITDAVEYARKRTPKHAGIMITIVWIISVFISMPPLFWRHQGTSRDDECIIKHDHIVSTIYSTFGAFYIPLALILILYYKIYRAAKTLYHKRQASRIAKEEVNGQVLLESGEKSTKSVSTSYVLEKSLSDPSTDFDKIHSTVRSLRSEFKHEKSWRRQKISGTRERKAATTLGLILGAFVICWLPFFVKELVVNVCDKCKISEEMSNFLAWLGYLNSLINPLIYTIFNEDFKKAFQKLVRCRC [HTR1F]	2040 ± 280	–	–
MDGSNVTSFVVEEPTNISTGRNASVGNAHRQIPIVHWVIMSISPVGFVENGILLWFLCFRMRRNPFTVYITHLSIADISLLFCIFILSIDYALDYELSSGHYYTIVTLSVTFLFGYNTGLYLLTAISVERCLSVLYPIWYRCHRPKYQSALVCALLWALSCLVTTMEYVMCIDREEESHSRNDCRAVIIFIAILSFLVFTPLMLVSSTILVVKIRKNTWASHSSKLYIVIMVTIIIFLIFAMPMRLLYLLYYEYWSTFGNLHHISLLFSTINSSANPFIYFFVGSSKKKRFKESLKVVLTRAFKDEMQPRRQKDNCNTVTVETVV [MAS1]	782 ± 65	–	–
MDGTNGSTQTHFILLGFSDRPHLERILFVVILIAYLLTLVGNTTIILVSRLDPHLHTPMYFFLAHLSFLDLSFTTSSIPQLLYNLNGCDKTISYMGCAIQLFLFLGLGGVECLLLAVMAYDRCVAICKPLHYMVIMNPRLCRGLVSVTWGCGVANSLAMSPVTLRLPRCGHHEVDHFLREMPALIRMACVSTVAIEGTVFVLAVGVVLSPLVFILLSYSYIVRAVLQIRSASGRQKAFGTCGSHLTVVSLFYGNIIYMYMQPGASSSQDQGMFLMLFYNIVTPLLNPLIYTLRNREVKGALGRLLLGKRELGKE [OR2W3]	–	129 ± 7.6	–
MDHCGALFLCLCLLTLQNATTETWEELLSYMENMQVSRGRSSVFSSRQLHQLEQMLLNTSFPGYNLTLQTPTIQSLAFKLSCDFSGLSLTSATLKRVPQAGGQHARGQHAMQFPAELTRDACKTRPRELRLICIYFSNTHFFKDENNSSLLNNYVLGAQLSHGHVNNLRDPVNISFWHNQSLEGYTLTCVFWKEGARKQPWGGWSPEGCRTEQPSHSQVLCRCNHLTYFAVLMQLSPALVPAELLAPLTYISLVGCSISIVASLITVLLHFHFRKQSDSLTRIHMNLHASVLLLNIAFLLSPAFAMSPVPGSACTALAAALHYALLSCLTWMAIEGFNLYLLLGRVYNIYIRRYVFKLGVLGWGAPALLVLLSLSVKSSVYGPCTIPVFDSWENGTGFQNMSICWVRSPVVHSVLVMGYGGLTSLFNLVVLAWALWTLRRLRERADAPSVRACHDTVTVLGLTVLLGTTWALAFFSFGVFLLPQLFLFTILNSLYGFFLFLWFCSQRCRSEAEAKAQIEAFSSSQTTQ [ADGRG5]	–	–	plasma membrane surface immunostaining intensity (GPCR class: B): 512 ± 20
MDHQDPYSVQATAAIAAAITFLILFTIFGNALVILAVLTSRSLRAPQNLFLVSLAAADILVATLIIPFSLANELLGYWYFRRTWCEVYLALDVLFCTSSIVHLCAISLDRYWAVSRALEYNSKRTPRRIKCIILTVWLIAAVISLPPLIYKGDQGPQPRGRPQCKLNQEAWYILASSIGSFFAPCLIMILVYLRIYLIAKRSNRRGPRAKGGPGQGESKQPRPDHGGALASAKLPALASVASAREVNGHSKSTGEKEEGETPEDTGTRALPPSWAALPNSGQGQKEGVCGASPEDEAEEEEEEEEEEEECEPQAVPVSPASACSPPLQQPQGSRVLATLRGQVLLGRGVGAIGGQWWRRRAQLTREKRFTFVLAVVIGVFVLCWFPFFFSYSLGAICPKHCKVPHGLFQFFFWIGYCNSSLNPVIYTIFNQDFRRAFRRILCRPWTQTAW [ADRA2B]	6390 ± 13	–	–
MDISEGNKTLVTEFVLTGLTDRPWLHVLFFVVFLVVYLITMVGNLGLIVLIWNDPHLHMPMYLFLGGLAFSDACTSTSITPRMLVNFLDKTAMISLAECITQFYFFASSATTECFLLVMMAYDRYVAICNPLLYPVMMSNKLSAQLLSISYVIGFLHPLVHVSLLLRLTFCRFNIIHYFYCEILQLFKISCNGPSINALMIFIFGAFIQIPTLMTIIISYTRVLFDILKKKSEKGRSKAFSTCGAHLLSVSLYYGTLIFMYVRPASGLAEDQDKVYSLFYTIIIPLLNPFIYSLRNKKVMHALRRVIRK [OR5AC2]	–	166 ± 48	–
MDKINQTFVREFILLGLSGYPKLEIIFFALILVMYVVILIGNGVLIIASILDSRLHMPMYFFLGNLSFLDICYTTSSIPSTLVSLISKKRNISFSGCAVQMFFGFAMGSTECFLLGMMAFDRYVAICNPLRYPIIMNKVVYVLLTSVSWLSGGINSTVQTSLAMRWPFCGNNIINHFLCEILAVLKLACSDISVNIVTLAVSNIAFLVLPLLVIFFSYMFILYTILRTNSATGRHKAFSTCSAHLTVVIIFYGTIFFMYAKPKSQDLLGKDNLQATEGLVSMFYGVVTPMLNPIIYSLRNKDVKAAIKYLLSRKAINQ [OR13C4]	–	311 ± 110	–
